# According to US20150216998A1, “ENDO180-TARGETED PARTICLES FOR SELECTIVE DELIVERY OF THERAPEUTIC AND DIAGNOSTIC AGENTS” (QBI ENTERPRISES LTD., priority 2012, published 2015):
# B1: MB: anti-ENDO180 scFv clone G7V, SEQ ID NO:6, also known as minibody (protein)
# scFv: MKYLLPTAAAGLLLLAASGAHAQVQLVQSGGGLVKPGGSLRLSCAASGFTFSSYSMNWVRQAPGKGLEWVANIKPDGSERHSVDSVKGRFTISRDNSKNSLYLQMNSLRAEDTAVYYCARPGAGRLDYWGQGTLVTVSSGGGGSGGGGSGGGGSNFMLTQDAAVSVALGQTVRITCQGDSLRSYYASWYQQKPGQAPVLVVYGKNNRPSGIPDRFSGSSSGNTASLTITGAQAEDEADYYCNSRDSSGNPWAFGGGTKVTVLASGKPIPNPLLGLDSTHHHHHH
# modifications: Polypeptide encoded by SEQ ID NO:5
# Experiments:
# [1] = test system: ENDO180 expressing cell lines; assay: FACS binding capacity screening, all tested ENDO180 expressing cell lines; assay type: cell-based
# Procedure: For binding analysis, 3.5×10^5 cells were trypsinized, spun down, re-suspended with FACS buffer (1% fetal bovine serum in 1×PBS), incubated for 30 minutes on ice with anti ENDO180 mAbs (1 μg) and washed with 1 ml FACS buffer. mAb samples were incubated with a secondary FITC conjugated goat anti mouse IgG antibody (115-095-072) (1:100, 150 μg/ml) in 50 μl of FACS buffer 30 minutes on ice, resuspended in 1 ml FACS buffer and analyzed using a FACS Calibur flow cytometer.
# Cell lines which express different ENDO180 receptor levels were tested: NRK+ (a normal rat kidney), DU145^+ (a human prostate adenocarcinoma), LLC^+ (a mouse Lewis lung carcinoma), DU145^− and LLC^− (control cell lines, which are low expressors of ENDO180 receptor levels, i.e. express the PIRES Puro empty plasmid), A549 (human lung carcinoma) and CT26 (mouse colon carcinoma). NRK+, DU145^+ and LLC^+ stably express ENDO180 receptor levels. A549 and CT26 express naturally unknown levels of ENDO180 receptor. The binding capacity of the above cell lines was compared using 4 different Abs: mAb 8D8 clone, mAb10C12 clone, minibody (MB) and anti-wnt minibody (negative control).
# A new batch was tested and the secondary Ab was changed (FITC conjugated goat anti mouse IgG F(ab)2 fragment, 115-095-072, Jackson Immunoresearch). The new MB batch was labeled directly with protein labeling kit.
# tested cell lines = assay: Internalization of anti-ENDO180 antibodies into the tested cell lines (confocal microscopy); assay type: cell-based; conditions: unconjugated Abs followed by secondary FITC goat anti mouse Ab
# Procedure: Internalization assays were performed in 24 well plates. 1×10^5 A549 or NRK-ENDO180 or NRK naive cells were seeded on cover slips in RPMI or DMEM medium respectively, supplemented with antibiotics, L-Glutamine and 10% fetal calf serum (Biological Industries, Beit Haemek, Israel).
# For membrane staining, cells were stained with CellTracker™ DilC18 (5)-DS solution (Invitrogen, Carlsbad, Calif., USA), diluted 1:5000 with PBS. For cell membrane labeling, Concanavalin A, Alexa fluor 647 conjugate (10 μg/ml) (C21421, Invitrogen) was used. For nuclei staining, cells were stained with Hoechst (1:10,000 in PBS) (33258, Sigma). […] Subsequently, the cells were washed twice using cold PBS, fixated with 4% paraformaldehyde (PFA) and washed again with cold PBS. Membrane and nuclei staining were performed after fixation.
# The cells were mounted using fluorescent mounting medium (Golden Bridge international, Mukilteo, Wash., USA) and fluorescence was measured using Andor Spinning disc confocal microscope and the Meta 510 Zeiss LSM confocal microscope. Laser beams at 405, 488, 561 and 650 nm were used for UV, Rhodamine, Concavaline A and CellTracker™, fluorophores excitation respectively. Serial optical sections of the cells were recorded for each treatment and the images were processed using Zeiss LSM Image browser software. […]
molecule,measurement,setting,value
B1,binding capacity,"[1]; all of the tested cell lines, first batch, secondary FITC Ab",weak binding capacity
same,binding capacity,"[1]; new batch, labeled directly with protein labeling kit, FIGS. 4A-D",No significant improvement in binding capacity
same,internalization,tested cell lines,no internalization
